# Reference: patent US20130059772A1, “Use of Repeat Sequence Protein Polymers in Personal Care Compositions” (DANISCO US INC., priority 2003, published 2013)
# Columns and labels:
# [1] = test system: procollagen type I C-peptide; experiment: Procollagen assay (type I C-peptide ELISA of fibroblast culture media); assay type: cell-based, human; settings: 48 hours, untreated 873 ± 111
# Excerpt: Collagen is synthesized as part of a much larger procollagen peptide. As the peptide is processed to form a mature collagen protein, the propeptide portion is cleaved off (type I C-peptide). Both the mature collagen protein and the type I C-peptide fragment are then released into the extracellular environment and accumulate in the culture media. Since there is a 1:1 stoichiometric ratio between the two parts of the procollagen peptide, assaying for type I C-peptide will reflect the amount of collagen synthesized. Type 1 C-peptide can be assayed via an ELISA based method.
# (§1) The test materials were tested in triplicate.
# Takara procollagen type IC-peptide ELISA kits were used in these experiments. A series of type I C-peptide standards was prepared ranging from 40 ng/ml to 640 ng/ml. An ELISA microplate was then prepared by removing any unneeded strips from the plate frame. To each well in the plate 100 μl of peroxidase-labeled anti procollagen type I-C peptide was added, followed by 20 μA of either sample (tissue culture media) or standard. The microplate was covered and allowed to incubate for 3±0.25 hours at 37° C. After the incubation period, each well was aspirated and washed three times with 400 μl of wash buffer. After the last wash was removed, 100 μl of peroxidase substrate solution (hydrogen peroxide containing tetramethylbenzidine as a chromagen) were added to each well and the plate was incubated for 15±5 minutes at room temperature. After the incubation period, 100 μA of stop solution (1 N sulfuric acid) was added to each well and the plate was read using a microplate reader at 450 nm. To quantify the amount of procollagen present, a standard curve was generated using known concentrations of procollagen type 1-C peptide. […] Mean absorbance values for the test materials and untreated samples was then used to estimate the amount of procollagen type 1-C peptide present in each sample.
# MMP-1 = MMP-1 assay (fluorometric ELISA of fibroblast culture media); assay type: cell-based, human; settings: for MMP-1 Activity: 48 hours, untreated 0.11 ± 0.05; for effect on MMP-1 activity: summary in words
# Method: MMP-1 is a zinc and calcium dependent endopeptidase that is produced and released from both dermal fibroblasts and keratinocytes, and functions to break down collagens located in the extracellular matrix. Active MMP-1 released into the culture media can be assayed using a fluorescence-based ELISA. […] To quantify the active MMP-1 a fluorogenic substrate linked to a quencher molecule is added and any active MMP-1 present will cleave the peptide linkage between the fluorophore and the quencher molecule. This cleavage will eliminate the quencher molecules ability to inhibit the fluorescent signal of the fluorophore allowing a fluorescent signal that will be proportional to the amount of active MMP-1 present.
# as §1
# R&D Products MMP-1 Fluorokine E fluorometric ELISA kits were used in these experiments. A series of MMP-1 standards was prepared ranging from 0.39 ng/ml to 25 ng/ml and an ELISA microplate was prepared by removing any unneeded strips from the plate frame. In each well, 200 μA of Assay Diluent RD1-64 and 50 μA of each sample were added. For the standards, 100 μl of Assay Diluent RD1-64 and 150 μl of each respective standard were added. The plate was incubated for 3±0.25 hours at room temperature on a rocking platform. At the end of the incubation period, each well was aspirated and then washed four times with 400 μl of wash buffer. […] After the incubation period, the plate was washed four times as described above. After the last wash, 200 μl of substrate solution were added to each well and the plate was incubated for 17-20 hours at 37±2° C. (protected from light). At the end of the incubation period, the fluorescence intensity was measured (excitation 320 nm, emission 405 nm) using a fluorometer using a 20 mS integration time. To quantify the amount of MMP-1 activity, a standard curve was generated using known activity levels of MMP-1. […] Mean absorbance values for the test materials and untreated samples were then used to estimate the amount of MMP-1 activity present in each sample.
# elastin = experiment: Elastin assay (Fastin colorimetric assay of culture media); assay type: cell-based, human; settings: 48 hours, spent fibroblast media, untreated 69 ± 2
# Method: Elastin is released by fibroblasts (soluble elastin) into the extracellular space where it is then cross-linked to other elastin proteins to form an extensive network of fibers and sheets (insoluble elastin). Soluble elastin can be readily measured from cell culture medium via a colorimetric assay.
# as §1
# In these experiments, the Biocolor Fastin Elastin Assay kits were used. A 50 μl aliquot of sample material (cell culture medium for soluble elastin) was mixed with 1.0 ml of cold Fastin Precipitating Reagent in a 1.5-ml microcentrifuge tube. In addition to the spent media samples from the fibroblasts, 50 μl aliquots of the test materials diluted into fresh culture media at the concentrations used in the study were also assayed for elastin content. The sample/Fastin Precipitating Reagent mixture was then incubated overnight in an ice water bath to precipitate the elastin. On the following day, the cold microcentrifuge tubes were spun at 10,000×g for 10 minutes to pack the precipitated elastin and the supernatant was removed via careful aspiration.
# One (1) ml of Fastin Dye Reagent, along with 100 μl of 90% saturated ammonium sulphate was added to each tube. The microcentrifuge tubes were mixed with a vortex mixer and then allowed to incubate for at least 60 minutes at room temperature, with gentle mechanical agitation. The Fastin Dye Reagent interacts with unique amino acid sequences in the elastin protein. This elastin-dye complex precipitates in the presence of ammonium sulphate. After the incubation was over, the microcentrifuge tubes were spun at 10,000×g for 10 minutes to separate the precipitated elastin-dye complex from the unbound dye. The supernatant was carefully removed and the tubes were inverted to allow any residual supernatant to drain out.
# To release the elastin-bound dye, 1.0 ml of Fastin Destain reagent was added to each microcentrifuge tube. The tubes were capped as quickly as possible, as this reagent contains ammonia and methanol. The tubes were then vortexed. The absorbance of this solution was measured by a plate reader at 490 nm (200 μl volume read).
# An elastin standard curve was generated using 12.5, 25, and 50 μg aliquots of an Elastin Standard into microcentrifuge tubes (in duplicate). These samples were treated as described above (Elastin Assay) and the absorbance values were used to generate a standard curve of known concentrations. To derive the standard curve for the elastin assay, the absorbance was plotted against the elastin concentration in μg/ml for the standards. […] Mean absorbance values for the test materials and untreated samples were then used to estimate the amount of elastin present in each sample.
# [2] = test system: Fibroblasts (HDFn Cell Line); experiment: Initial pilot cell viability dose response (MTT assay); settings: for cell viability, percent of untreated cells: 48 hours; for effect on the number of viable cells: initial dose response, summary in words
# Method: Initial screening was conducted to identify a test range suitable to determine the effect of a broad range of test material concentrations on cell viability. […] Cultured fibroblasts were exposed to the test materials for 48 hours and then changes in cell viability were determined using an MTT assay (i.e., a colorimetric analysis of the metabolic activity of the cultured cells, described in greater detail below).
# The purple crystals are extracted from the cells with isopropanol and the amount of crystal formation quantified spectrophotometrically. […] A decrease in color intensity can be a sign of toxicity.
# Fibroblasts (Cascade Biologics, HDFn Cell Line, lot#1C0914) were seeded into the individual wells of either a 96-well plate (for the initial pilot work to determine concentration effects on cell viability) in 100 μl of Fibroblast Growth Media (FGM) or in 12-well plates (for the measurement of collagen, elastin and MMP-1) in 1.0 ml of FGM and incubated overnight at 37±2° C. and 5±1% CO2. On the following day, the medium was removed via aspiration to eliminate any non-adherent cells and replaced with fresh FGM. The cells were grown until confluent, with a media change every 48 to 72 hours. Upon reaching confluency, the cells were treated for 24 hours with Dulbecco's Modified Essential Media (DMEM) supplemented with 1.5% FBS to wash out any effects from the growth factors included in the normal FGM. After this 24-hour wash out period, the cells were treated with the test materials at the specified concentrations dissolved in DMEM with 1.5% FBS. Untreated cells (negative controls) received DMEM with 1.5% FBS. The cells were incubated for 48 hours and at the end of the incubation period cell culture medium was either discarded (pilot work) or collected and stored frozen at −75° C. The test materials were tested in triplicate.
# After the 2-day incubation, the cell culture medium was removed and the fibroblasts were washed twice with PBS to remove any remaining test material. After the final wash, either 100 μl (96-well plates) or 300 μl (12-well plates) of DMEM supplemented with 0.5 mg/ml MTT were added to each well and the cells were incubated for 1 hour at 37±2° C. and 5±1% CO2. After the incubation, the DMEM/MTT solution was removed and the cells were washed again once with PBS and then either 100 μl (96-well plates) or 1 ml (12-well plates) of isopropyl alcohol were added to each well to extract the purple formazin crystals. For the 12-well plates, two hundred microliters of the isopropyl extracts was transferred to a 96-well plate. The 96-well plates were read at 540 nm using isopropyl alcohol as a blank. The mean MTT absorbance value for the negative control cells was calculated and used to represent 100% value for cell viability. The individual MTT values from the cells undergoing the various treatments were then divided by the mean value for the negative control cells and expressed as a percent, to determine the change in cell viability caused by each treatment.
molecule,measurement,setting,value
"GC2596-26-D: SELP47K modified with two units of ALSYP (SEQ ID NO:36) peptides in each SELP47K unit; SEQ ID NO:32 (Example 4) (protein, SELP 47K-P4) MDPVVLQRRDWENPGVTQLNRLAAHPPFASDPMGAGAGSGAGAGSALSYPGVGVPGVGVPGVGVPGVGVPGKGVPGVGVPGVGVPGVGVPALSYPGAGAGSGAGAGSGAGAGSGAGAGSALSYPGVGVPGVGVPGVGVPGVGVPGKGVPGVGVPGVGVPGVGVPALSYPGAGAGSGAGAGSGAGAGSGAGAGSALSYPGVGVPGVGVPGVGVPGVGVPGKGVPGVGVPGVGVPGVGVPALSYPGAGAGSGAGAGSGAGAGSGAGAGSALSYPGVGVPGVGVPGVGVPGVGVPGKGVPGVGVPGVGVPGVGVPALSYPGAGAGSGAGAGSGAGAGSGAGAGSALSYPGVGVPGVGVPGVGVPGVGVPGKGVPGVGVPGVGVPGVGVPALSYPGAGAGSGAGAGSGAGAGSGAGAGSALSYPGVGVPGVGVPGVGVPGVGVPGKGVPGVGVPGVGVPGVGVPALSYPGAGAGSGAGAGSGAGAGSGAGAGSALSYPGVGVPGVGVPGVGVPGVGVPGKGVPGVGVPGVGVPGVGVPALSYPGAGAGSGAGAGSGAGAGSGAGAGSALSYPGVGVPGVGVPGVGVPGVGVPGKGVPGVGVPGVGVPGVGVPALSYPGAGAGSGAGAGSGAGAGSGAGAGSALSYPGVGVPGVGVPGVGVPGVGVPGKGVPGVGVPGVGVPGVGVPALSYPGAGAGSGAGAGSGAGAGSGAGAGSALSYPGVGVPGVGVPGVGVPGVGVPGKGVPGVGVPGVGVPGVGVPALSYPGAGAGSGAGAGSGAGAGSGAGAGSALSYPGVGVPGVGVPGVGVPGVGVPGKGVPGVGVPGVGVPGVGVPALSYPGAGAGSGAGAGSGAGAGSGAGAGSALSYPGVGVPGVGVPGVGVPGVGVPGKGVPGVGVPGVGVPGVGVPALSYPGAGAGSGAGAGSGAGAGSGAGAGSALSYPGVGVPGVGVPGVGVPGVGVPGKGVPGVGVPGVGVPGVGVPALSYPGAGAGSGAGAGSGAGAMDPGRYQDLRSHHHHHH",Type-1 C Peptide,[1]; 0.0014%,894 ± 156 ng/mL
same,Type-1 C Peptide,[1]; 0.007%,908 ± 94 ng/mL
same,Type-1 C Peptide,[1]; 0.014%,829 ± 171 ng/mL
same,MMP-1 Activity,MMP-1; 0.0014%,-0.01 ± 0.01 ng/mL
same,MMP-1 Activity,MMP-1; 0.007%,-0.02 ± 0.02 ng/mL
same,MMP-1 Activity,MMP-1; 0.014%,-0.03 ± 0.01 ng/mL
same,effect on MMP-1 activity,MMP-1,almost complete loss of detectable MMP-1 activity
same,Elastin,elastin; 0.0014%,72 ± 12 μg/ml media
same,Elastin,elastin; 0.007%,69 ± 4 μg/ml media
same,Elastin,elastin; 0.014%,68 ± 10 μg/ml media
same,"cell viability, percent of untreated cells",[2]; 0.0014%,130 ± 15%
same,"cell viability, percent of untreated cells",[2]; 0.007%,138 ± 9%
same,"cell viability, percent of untreated cells",[2]; 0.014%,145 ± 12%
same,"cell viability, percent of untreated cells",[2]; 0.07%,145 ± 11%
same,"cell viability, percent of untreated cells",[2]; 0.14%,154 ± 24%
same,effect on the number of viable cells,[2],strongly stimulate increases in the number of viable cells
"GC2596-26-E: collagen-like repeat sequence protein polymer, head-[(GAHGPAGPK)2(GAQGPAGPG)24(GAHGPAGPK)2]4-tail; SEQ ID NO:34 (Example 5) (protein, silk-elastin repeat sequence protein copolymer) MDPVVLQRRDWENPGVTQLNRLAAHPPFASDPMGAHGPAGPKGAHGPAGPKGAQGPAGPGGAQGPAGPGGAQGPAGPGGAQGPAGPGGAQGPAGPGGAQGPAGPGGAQGPAGPGGAQGPAGPGGAQGPAGPGGAQGPAGPGGAQGPAGPGGAQGPAGPGGAQGPAGPGGAQGPAGPGGAQGPAGPGGAQGPAGPGGAQGPAGPGGAQGPAGPGGAQGPAGPGGAQGPAGPGGAQGPAGPGGAQGPAGPGGAQGPAGPGGAQGPAGPGGAHGPAGPKGAHGPAGPKGAHGPAGPKGAHGPAGPKGAQGPAGPGGAQGPAGPGGAQGPAGPGGAQGPAGPGGAQGPAGPGGAQGPAGPGGAQGPAGPGGAQGPAGPGGAQGPAGPGGAQGPAGPGGAQGPAGPGGAQGPAGPGGAQGPAGPGGAQGPAGPGGAQGPAGPGGAQGPAGPGGAQGPAGPGGAQGPAGPGGAQGPAGPGGAQGPAGPGGAQGPAGPGGAQGPAGPGGAQGPAGPGGAQGPAGPGGAHGPAGPKGAHGPAGPKGAHGPAGPKGAHGPAGPKGAQGPAGPGGAQGPAGPGGAQGPAGPGGAQGPAGPGGAQGPAGPGGAQGPAGPGGAQGPAGPGGAQGPAGPGGAQGPAGPGGAQGPAGPGGAQGPAGPGGAQGPAGPGGAQGPAGPGGAQGPAGPGGAQGPAGPGGAQGPAGPGGAQGPAGPGGAQGPAGPGGAQGPAGPGGAQGPAGPGGAQGPAGPGGAQGPAGPGGAQGPAGPGGAQGPAGPGGAHGPAGPKGAHGPAGPKGAHGPAGPKGAHGPAGPKGAQGPAGPGGAQGPAGPGGAQGPAGPGGAQGPAGPGGAQGPAGPGGAQGPAGPGGAQGPAGPGGAQGPAGPGGAQGPAGPGGAQGPAGPGGAQGPAGPGGAQGPAGPGGAQGPAGPGGAQGPAGPGGAQGPAGPGGAQGPAGPGGAQGPAGPGGAQGPAGPGGAQGPAGPGGAQGPAGPGGAQGPAGPGGAQGPAGPGGAQGPAGPGGAQGPAGPGGAHGPAGPKGAHGPAGPKMDPGRYQLSAGRYHYQLVWCQK",Type-1 C Peptide,[1]; 0.001%,838 ± 75 ng/mL
same,Type-1 C Peptide,[1]; 0.005%,1162 ± 194 ng/mL
same,Type-1 C Peptide,[1]; 0.01%,956 ± 110 ng/mL
same,MMP-1 Activity,MMP-1; 0.001%,0.04 ± 0.05 ng/mL
same,MMP-1 Activity,MMP-1; 0.005%,-0.01 ± 0.02 ng/mL
same,MMP-1 Activity,MMP-1; 0.01%,0.00 ± 0.02 ng/mL
same,effect on MMP-1 activity,MMP-1,almost complete loss of detectable MMP-1 activity
same,Elastin,elastin; 0.001%,63 ± 10 μg/ml media
same,Elastin,elastin; 0.005%,59 ± 5 μg/ml media
same,Elastin,elastin; 0.01%,50 ± 18 μg/ml media
same,effect on the number of viable cells,[2],reduce the number of viable cells
